Assay results: the supplement of paper PMC7877785
± gives the uncertainty stated by the source.

Assay: self-splicing fitness, log relative to wild type (ln ratio); higher = more splicing; Tetrahymena group I intron in knt gene, E. coli kanamycin selection, DiMSum; sequences stand for … in CUCUCU…GGAGGGAAAAGUUAUCAGGCAUGCACCUGGUAGCUAGUCUUUAAACCAAUAGAUUGCAUCGGUUUAAAAGGCAAGACCGUCAAAUUGCGGGAAAGGGGUCAACAGCCGUUCAGUACCAAGUCUCAGGGGAAACUUUGAGAUGGCCUUGCAAAGGGUAUGGUAAUAAGCUGACGGACAUGGUCCUAACCACGCAGCCAAGUCCUAAGUCAACAGAUCUUCUGUUGAUAUGGAUGCAGUUCACAGACUAAAUGUCGGUCGGGGAAGAUGUAUUCUUCUCAUAAGAUAUAGUCGGACCUCUCCUUAAUGGGAGCUAGCGGAUGAAGUGAUGCAACACUGGAGCCGCUGGGAACUAAUUUGUAUGCGAAAGUAUAUUGAUUAGUUUUGGAGUACUCGUGGUCG
Procedure, shortened: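 Colonies from six replicate transformations of E. coli BL21(DE3) were pooled and amplicon-sequenced on an Illumina HiSeq 2500. The library placed an intron with all eight P1ex-region nucleotides randomised inside the knt kanamycin-resistance gene on pET-22b(+), and cells grew overnight at 37°C or 30°C on LB agar with or without 25 μg/mL kanamycin (plus 100 μg/mL carbenicillin, 50 μM IPTG, 0.2% rhamnose). Fitness is the DiMSum error-weighted combination of wild-type-normalised replicate fold changes, kanamycin versus none.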

| Sequence | self-splicing fitness (ln) (30 °C) | self-splicing fitness (ln) (37 °C) |
| --- | --- | --- |
| UACGAGCAAUAUUACGGGGU | -3.05 ± 0.14 | -2.28 ± 0.14 |
| UACGAGCAAUAUUACGGUAG | -2.97 ± 0.14 | -2.35 ± 0.17 |
| UACGAGCAAUAUUACGGUAU | -3.12 ± 0.26 | -3.28 ± 0.3 |
| UACGAGCAAUAUUACGUCUG | -1.51 ± 0.1 | -1.34 ± 0.11 |
| UACGAGCAAUAUUACGUGCU | -3.9 ± 0.23 | -2.4 ± 0.19 |
| UACGAGCAAUAUUACGUGGU | -2.86 ± 0.15 | -1.87 ± 0.23 |
| UACGAGCAAUAUUACGUGUC | -3.32 ± 0.17 | -2.83 ± 0.28 |
| UACGAGCAAUAUUACGUUAG | -3.03 ± 0.17 | -2.32 ± 0.19 |
| UACGAGCAAUAUUACGUUCC | -2.83 ± 0.36 |  |
| UACGAGCAAUAUUACGUUGA | -3.2 ± 0.24 | -2.73 ± 0.23 |
| UACUAGCAAUAUUACGACAG | -1.04 ± 0.1 | -0.806 ± 0.13 |
| UACUAGCAAUAUUACGACUA | 0.113 ± 0.097 | 0.792 ± 0.11 |
| UACUAGCAAUAUUACGAGGC | -3.01 ± 0.17 | -2.27 ± 0.23 |
| UACUAGCAAUAUUACGAUGU | -3.42 ± 0.27 | -1.74 ± 0.22 |
| UACUAGCAAUAUUACGCCGG | -1.68 ± 0.18 | -0.8 ± 0.17 |
| UACUAGCAAUAUUACGCGAC | -2.29 ± 0.25 | -2.29 ± 0.3 |
| UACUAGCAAUAUUACGCGCG | -0.375 ± 0.12 | -0.0222 ± 0.12 |
| UACUAGCAAUAUUACGCUGA | -2.48 ± 0.16 | -1.37 ± 0.15 |
| UACUAGCAAUAUUACGCUUC | -2.88 ± 0.17 | -1.66 ± 0.26 |
| UACUAGCAAUAUUACGGAAU | -4.58 ± 0.39 | -2.95 ± 0.23 |
| UACUAGCAAUAUUACGGCAG | -0.408 ± 0.075 | 0.134 ± 0.12 |
| UACUAGCAAUAUUACGGCGA | -0.849 ± 0.11 | 0.621 ± 0.13 |
| UACUAGCAAUAUUACGGGCG | -0.0495 ± 0.11 | 0.375 ± 0.14 |
| UACUAGCAAUAUUACGGUGC | -3.29 ± 0.26 | -2.04 ± 0.31 |
| UACUAGCAAUAUUACGGUUA | -0.377 ± 0.1 | 0.35 ± 0.12 |

| Sequence | self-splicing fitness (ln) (30 °C) | self-splicing fitness (ln) (37 °C) |
| --- | --- | --- |
| UACUAGCAAUAUUACGGUUU | -1.41 ± 0.1 | -0.44 ± 0.12 |
| UACUAGCAAUAUUACGUAUA | -2.31 ± 0.29 | -1.19 ± 0.21 |
| UACUAGCAAUAUUACGUCAU | -2.66 ± 0.2 | -1.74 ± 0.13 |
| UACUAGCAAUAUUACGUCCG | -0.327 ± 0.12 | 0.11 ± 0.14 |
| UACUAGCAAUAUUACGUCGA | -2.11 ± 0.12 | -0.821 ± 0.12 |
| UACUAGCAAUAUUACGUGAA | -2.19 ± 0.11 | -1.18 ± 0.13 |
| UACUAGCAAUAUUACGUUUA | -2.47 ± 0.16 | -1.05 ± 0.12 |
| UAGAAGCAAUAUUACGACCA | -0.67 ± 0.094 | -0.157 ± 0.12 |
| UAGAAGCAAUAUUACGAUAU | -3.44 ± 0.25 | -2.19 ± 0.19 |
| UAGAAGCAAUAUUACGAUGU | -3.01 ± 0.18 | -1.69 ± 0.19 |
| UAGAAGCAAUAUUACGCCAU | -1.02 ± 0.4 |  |
| UAGAAGCAAUAUUACGCCCU | -0.743 ± 0.19 | 0.316 ± 0.22 |
| UAGAAGCAAUAUUACGCGCA | -0.327 ± 0.15 | 0.03 ± 0.18 |
| UAGAAGCAAUAUUACGCGCU | -1.28 ± 0.16 | -1.85 ± 0.17 |
| UAGAAGCAAUAUUACGCUGA |  | -1.74 ± 0.2 |
| UAGAAGCAAUAUUACGCUGG | -1.38 ± 0.16 | -0.436 ± 0.18 |
| UAGAAGCAAUAUUACGGACA | -0.547 ± 0.11 | -0.0716 ± 0.13 |
| UAGAAGCAAUAUUACGGACG | -0.286 ± 0.13 | 0.291 ± 0.16 |
| UAGAAGCAAUAUUACGGAGC |  | -3.93 ± 0.46 |
| UAGAAGCAAUAUUACGGAUG | -1.41 ± 0.099 | -0.694 ± 0.12 |
| UAGAAGCAAUAUUACGGCUC | -2.6 ± 0.3 | -0.946 ± 0.3 |
| UAGAAGCAAUAUUACGGGAG | -1.97 ± 0.14 | -1.39 ± 0.12 |
| UAGAAGCAAUAUUACGGGGA | -2.39 ± 0.14 | -0.988 ± 0.12 |
| UAGAAGCAAUAUUACGGGUU | -4.54 ± 0.34 | -1.87 ± 0.2 |
| UAGAAGCAAUAUUACGGUAC | -3.25 ± 0.37 |  |

| Sequence | self-splicing fitness (ln) (30 °C) | self-splicing fitness (ln) (37 °C) |
| --- | --- | --- |
| UAGAAGCAAUAUUACGGUGG | -1.84 ± 0.12 | -1.2 ± 0.13 |
| UAGAAGCAAUAUUACGUCAC | -2.92 ± 0.35 |  |
| UAGAAGCAAUAUUACGUGAU | -2.73 ± 0.11 | -1.84 ± 0.11 |
| UAGAAGCAAUAUUACGUGCG | -0.462 ± 0.082 | -0.125 ± 0.098 |
| UAGAAGCAAUAUUACGUGGA | -2.1 ± 0.13 | -1.92 ± 0.16 |
| UAGCAGCAAUAUUACGAAGG | -2.85 ± 0.12 | -2.21 ± 0.19 |
| UAGCAGCAAUAUUACGACGU | -1.14 ± 0.073 | -0.658 ± 0.1 |
| UAGCAGCAAUAUUACGAGUG | -1.02 ± 0.075 | -0.131 ± 0.075 |
| UAGCAGCAAUAUUACGAGUU | -3.47 ± 0.15 | -1.98 ± 0.14 |
| UAGCAGCAAUAUUACGAUAG | -1.78 ± 0.073 | -1.46 ± 0.1 |
| UAGCAGCAAUAUUACGCAGG | -3.01 ± 0.25 | -2.14 ± 0.25 |
| UAGCAGCAAUAUUACGCAUG | -0.793 ± 0.096 | -1.17 ± 0.14 |
| UAGCAGCAAUAUUACGCCCG | -0.432 ± 0.18 | -0.57 ± 0.21 |
| UAGCAGCAAUAUUACGGAGU | -3.64 ± 0.18 | -2.78 ± 0.15 |
| UAGCAGCAAUAUUACGGCAC | -2.14 ± 0.18 | 0.167 ± 0.21 |
| UAGCAGCAAUAUUACGGCGU | -0.605 ± 0.12 | 0.0421 ± 0.13 |
| UAGCAGCAAUAUUACGGGCG | -0.609 ± 0.065 | -0.24 ± 0.087 |
| UAGCAGCAAUAUUACGGGUC |  | -3.65 ± 0.42 |
| UAGCAGCAAUAUUACGUAUC | -3.16 ± 0.16 | -2.87 ± 0.25 |
| UAGCAGCAAUAUUACGUCAC | -4.49 ± 0.42 | -2.46 ± 0.33 |
| UAGCAGCAAUAUUACGUCAG | -0.628 ± 0.1 | -1.13 ± 0.12 |
| UAGCAGCAAUAUUACGUCGG | -0.706 ± 0.1 | -0.878 ± 0.13 |
| UAGCAGCAAUAUUACGUCUG | -1.32 ± 0.14 | -1.6 ± 0.14 |
| UAGCAGCAAUAUUACGUGCA | -0.411 ± 0.082 | -0.287 ± 0.086 |
| UAGCAGCAAUAUUACGUUGA | -2.46 ± 0.13 | -2.07 ± 0.12 |

| Sequence | self-splicing fitness (ln) (30 °C) | self-splicing fitness (ln) (37 °C) |
| --- | --- | --- |
| UAGGAGCAAUAUUACGAAGU |  | -2.35 ± 0.43 |
| UAGGAGCAAUAUUACGAGAU |  | -1.95 ± 0.36 |
| UAGGAGCAAUAUUACGAGGG | -3.6 ± 0.42 | -2.35 ± 0.33 |
| UAGGAGCAAUAUUACGAUUC | -2.08 ± 0.37 |  |
| UAGGAGCAAUAUUACGAUUG | -1.85 ± 0.15 | -0.617 ± 0.16 |
| UAGGAGCAAUAUUACGCACG | -2.12 ± 0.32 | -0.819 ± 0.25 |
| UAGGAGCAAUAUUACGCAUG | -1.64 ± 0.2 | 0.135 ± 0.15 |
| UAGGAGCAAUAUUACGCCGG | -2.07 ± 0.22 | -1.57 ± 0.3 |
| UAGGAGCAAUAUUACGCUAG | -3.03 ± 0.19 | -0.83 ± 0.19 |
| UAGGAGCAAUAUUACGCUGC | -3.05 ± 0.41 | -1.03 ± 0.42 |
| UAGGAGCAAUAUUACGGGAC | -3.63 ± 0.4 | -2.85 ± 0.47 |
| UAGGAGCAAUAUUACGGUCC | -3.93 ± 0.37 | -0.78 ± 0.26 |
| UAGGAGCAAUAUUACGGUGG | -2.79 ± 0.21 | -0.497 ± 0.17 |
| UAGGAGCAAUAUUACGUACG | -1.28 ± 0.17 | -0.737 ± 0.3 |
| UAGGAGCAAUAUUACGUCUC | -2.51 ± 0.49 |  |
| UAGGAGCAAUAUUACGUGUA | -2.02 ± 0.13 | -1.63 ± 0.12 |
| UAGGAGCAAUAUUACGUGUC | -3.27 ± 0.34 | -1.82 ± 0.27 |
| UAGGAGCAAUAUUACGUUCC | -2.97 ± 0.4 |  |
| UAGUAGCAAUAUUACGAAAG |  | -1.97 ± 0.26 |
| UAGUAGCAAUAUUACGACCA | -0.4 ± 0.15 | 0.221 ± 0.17 |
| UAGUAGCAAUAUUACGAGCC | -2.98 ± 0.47 | -2.31 ± 0.42 |
| UAGUAGCAAUAUUACGAUCC | -3.16 ± 0.45 | -2.22 ± 0.4 |
| UAGUAGCAAUAUUACGAUGU |  | -2.22 ± 0.32 |
| UAGUAGCAAUAUUACGCAAU |  | -2.45 ± 0.35 |
| UAGUAGCAAUAUUACGCACG | -0.964 ± 0.15 | -0.244 ± 0.21 |
